Measurements published in IntAct's records for PubMed 17363896.

B1: Kexin (Saccharomyces cerevisiae), P13134 (parent)
chain: MKVRKYITLCFWWAFSTSALVSSQQIPLKDHTSRQYFAVESNETLSRLEEMHPNWKYEHDVRGLPNHYVFSKELLKLGKRSSLEELQGDNNDHILSVHDLFPRNDLFKRLPVPAPPMDSSLLPVKEAEDKLSINDPLFERQWHLVNPSFPGSDINVLDLWYNNITGAGVVAAIVDDGLDYENEDLKDNFCAEGSWDFNDNTNLPKPRLSDDYHGTRCAGEIAAKKGNNFCGVGVGYNAKISGIRILSGDITTEDEAASLIYGLDVNDIYSCSWGPADDGRHLQGPSDLVKKALVKGVTEGRDSKGAIYVFASGNGGTRGDNCNYDGYTNSIYSITIGAIDHKDLHPPYSEGCSAVMAVTYSSGSGEYIHSSDINGRCSNSHGGTSAAAPLAAGVYTLLLEANPNLTWRDVQYLSILSAVGLEKNADGDWRDSAMGKKYSHRYGFGKIDAHKLIEMSKTWENVNAQTWFYLPTLYVSQSTNSTEETLESVITISEKSLQDANFKRIEHVTVTVDIDTEIRGTTTVDLISPAGIISNLGVVRPRDVSSEGFKDWTFMSVAHWGENGVGDWKIKVKTTENGHRIDFHSWRLKLFGESIDSSKTETFVFGNDKEEVEPAATESTVSQYSASSTSISISATSTSSISIGVETSAIPQTTTASTDPDSDPNTPKKLSSPRQAMHYFLTIFLIGATFLVLYFMFFMKSRRRIRRSRAETYEFDIIDTDSEYDSTLDNGTSGITEPEEVEDFDFDLSDEDHLASLSSSENGDAEHTIDSVLTNENPFSDPIKQKFPNDANAESASNKLQELQPDVPPSSGRS
partner: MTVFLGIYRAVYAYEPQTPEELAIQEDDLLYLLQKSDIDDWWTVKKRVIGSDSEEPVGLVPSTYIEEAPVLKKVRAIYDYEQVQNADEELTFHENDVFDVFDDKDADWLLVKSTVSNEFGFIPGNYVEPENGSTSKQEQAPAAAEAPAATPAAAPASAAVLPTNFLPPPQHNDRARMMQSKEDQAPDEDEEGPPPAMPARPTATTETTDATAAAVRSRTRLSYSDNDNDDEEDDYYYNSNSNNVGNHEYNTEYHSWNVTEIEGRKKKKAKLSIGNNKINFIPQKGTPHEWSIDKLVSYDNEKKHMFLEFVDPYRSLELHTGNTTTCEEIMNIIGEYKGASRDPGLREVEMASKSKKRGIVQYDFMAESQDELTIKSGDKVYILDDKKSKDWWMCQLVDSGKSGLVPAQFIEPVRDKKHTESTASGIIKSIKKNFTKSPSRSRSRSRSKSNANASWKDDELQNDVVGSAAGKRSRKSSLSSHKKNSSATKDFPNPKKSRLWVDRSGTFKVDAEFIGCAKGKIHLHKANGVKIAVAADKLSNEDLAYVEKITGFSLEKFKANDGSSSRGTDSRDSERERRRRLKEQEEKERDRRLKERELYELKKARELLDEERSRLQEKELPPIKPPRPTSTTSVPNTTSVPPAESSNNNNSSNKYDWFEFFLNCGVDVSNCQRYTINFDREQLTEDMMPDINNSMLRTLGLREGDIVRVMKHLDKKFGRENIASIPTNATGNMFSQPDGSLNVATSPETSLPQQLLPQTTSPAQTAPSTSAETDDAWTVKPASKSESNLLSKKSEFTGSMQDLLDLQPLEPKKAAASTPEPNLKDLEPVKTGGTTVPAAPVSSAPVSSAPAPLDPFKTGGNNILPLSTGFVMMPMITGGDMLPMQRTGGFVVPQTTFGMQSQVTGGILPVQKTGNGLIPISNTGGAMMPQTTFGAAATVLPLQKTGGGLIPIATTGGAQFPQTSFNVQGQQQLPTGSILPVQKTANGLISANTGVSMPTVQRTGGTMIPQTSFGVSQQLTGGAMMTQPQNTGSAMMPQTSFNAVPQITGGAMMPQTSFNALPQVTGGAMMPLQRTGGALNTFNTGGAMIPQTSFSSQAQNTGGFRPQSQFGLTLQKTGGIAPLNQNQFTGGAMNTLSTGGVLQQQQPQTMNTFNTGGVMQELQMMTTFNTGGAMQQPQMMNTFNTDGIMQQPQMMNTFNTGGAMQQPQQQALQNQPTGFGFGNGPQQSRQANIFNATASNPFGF
B2: Actin cytoskeleton-regulatory complex protein SLA1 (Saccharomyces cerevisiae), P32790 (parent)
chain: B1 partner
partner: B1 chain

Variants of: B1
Details: with sla1_yeast SLA1, P32790

| Variant | effect of a mutation on the interaction |
| --- | --- |
| D781A | decreasing interaction |

Variants of: B1
Details: with sla1_yeast SLA1, P32790
Remark: another data set of the same source

| Variant | effect of a mutation on the interaction |
| --- | --- |
| F779A | disrupting interaction |

Variants of: B2
Details: with kex2_yeast KEX2, P13134

| Variant | effect of a mutation on the interaction |
| --- | --- |
| F507A | disrupting interaction |

Variants of: B2
Details: with kex2_yeast KEX2, P13134
Remark: another data set of the same source

| Variant | effect of a mutation on the interaction |
| --- | --- |
| V529E | disrupting interaction |

Variants of: B2
Details: with kex2_yeast KEX2, P13134
Remark: another data set of the same source

| Variant | effect of a mutation on the interaction |
| --- | --- |
| V529E | decreasing interaction |

Variants of: B2
Details: with kex2_yeast KEX2, P13134
Remark: another data set of the same source

| Variant | effect of a mutation on the interaction |
| --- | --- |
| K525A | disrupting interaction |

Variants of: B2
Details: with kex2_yeast KEX2, P13134
Remark: another data set of the same source

| Variant | effect of a mutation on the interaction |
| --- | --- |
| K525A | decreasing interaction |

Variants of: B2
Details: with kex2_yeast KEX2, P13134
Remark: another data set of the same source

| Variant | effect of a mutation on the interaction |
| --- | --- |
| I531E | disrupting interaction |
